# What was measured:
# HeLa Kyoto [1] = experiment: solubility in G1/S (NP-40 vs SDS abundance) (log2 ratio); higher = more soluble; details: cell cycle stage: G1/S
# HeLa Kyoto [2] = experiment: melting temperature (median over replicates), in situ; higher = more thermally stable
# HeLa Kyoto [3] = experiment: solubility change mitosis vs G1/S (difference of NP-40 vs SDS log2 ratios) (log2 ratio difference); higher = more soluble in mitosis
# HeLa Kyoto [4] = experiment: thermal stability score vs G1/S (z-score of summed log2 fold changes over temperatures); higher = more thermally stable than in G1/S
# [5] = cell cycle stage: early G1 (4.5 h after nocodazole release)
# 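For melting temperature (median over replicates), in situ in this document: HeLa Kyoto cells synchronized by double thymidine or nocodazole block, proteins quantified by TMT10plex mass spectrometry, three independent biological replicates.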
# 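For solubility change mitosis vs G1/S (difference of NP-40 vs SDS log2 ratios) in this document: synchronized HeLa Kyoto cells (double thymidine block for G1/S, nocodazole release for mitosis), protein amounts in NP-40 versus SDS lysates quantified by mass spectrometry, three biological replicates.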
# 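For solubility in G1/S (NP-40 vs SDS abundance) in this document: HeLa Kyoto cells arrested at G1/S by double thymidine block, proteins quantified by TMT10plex mass spectrometry in mild NP-40 versus SDS extracts, three biological replicates.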
# 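For thermal stability score vs G1/S (z-score of summed log2 fold changes over temperatures) in this document: synchronized HeLa Kyoto cells, proteins quantified by TMT10plex mass spectrometry, three biological replicates, mitosis taken 0.5 h after nocodazole release, G1/S directly after double thymidine block.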
Sequence,solubility in G1/S (log2) (HeLa Kyoto [1]),melting temperature (HeLa Kyoto [2]; cell cycle stage: G1/S),melting temperature (HeLa Kyoto [2]; cell cycle stage: mitosis),solubility change mitosis (log2) (HeLa Kyoto [3]),thermal stability score (HeLa Kyoto [4]; [5]),thermal stability score (HeLa Kyoto [4]; cell cycle stage: mitosis)
MLDSLLALGGLVLLRDSVEWEGRSLLKALVKKSALCGEQVHILGCEVSEEEFREGFDSDINNRLVYHDFFRDPLNWSKTEEAFPGGPLGALRAMCKRTDPVPVTIALDSLSWLLLRLPCTTLCQVLHAVSHQDSCPGDSSSVGKVSVLGLLHEELHGPGPVGALSSLAQTEVTLGGTMGQASAHILCRRPRQRPTDQTQWFSILPDFSLDLQEGPSVESQPYSDPHIPPVDPTTHLTFNLHLSKKEREARDSLILPFQFSSEKQQALLRPRPGQATSHIFYEPDAYDDLDQEDPDDDLDI [ELP5],0.313,54.9 °C,53.9 °C,-0.11,-2.95,-4.18
MLGGSLGSRLLRGVGGSHGRFGARGVREGGAAMAAGESMAQRMVWVDLEMTGLDIEKDQIIEMACLITDSDLNILAEGPNLIIKQPDELLDSMSDWCKEHHGKSGLTKAVKESTITLQQAEYEFLSFVRQQTPPGLCPLAGNSVHEDKKFLDKYMPQFMKHLHYRIIDVSTVKELCRRWYPEEYEFAPKKAASHRALDDISESIKELQFYRNNIFKKKIDEKKRKIIENGENEKTVS [REXO2],0.239,56.8 °C,56.5 °C,0.144,-2.25,-3.59
MLGRSLREVSAALKQGQITPTELCQKCLSLIKKTKFLNAYITVSEEVALKQAEESEKRYKNGQSLGDLDGIPIAVKDNFSTSGIETTCASNMLKGYIPPYNATVVQKLLDQGALLMGKTNLDEFAMGSGSTDGVFGPVKNPWSYSKQYREKRKQNPHSENEDSDWLITGGSSGGSAAAVSAFTCYAALGSDTGGSTRNPAAHCGLVGFKPSYGLVSRHGLIPLVNSMDVPGILTRCVDDAAIVLGALAGPDPRDSTTVHEPINKPFMLPSLADVSKLCIGIPKEYLVPELSSEVQSLWSKAADLFESEGAKVIEVSLPHTSYSIVCYHVLCTSEVASNMARFDGLQYGHRCDIDVSTEAMYAATRREGFNDVVRGRILSGNFFLLKENYENYFVKAQKVRRLIANDFVNAFNSGVDVLLTPTTLSEAVPYLEFIKEDNRTRSAQDDIFTQAVNMAGLPAVSIPVALSNQGLPIGLQFIGRAFCDQQLLTVAKWFEKQVQFPVIQLQELMDDCSAVLENEKLASVSLKQ [QRSL1],0.0331,50 °C,50.4 °C,-0.131,-0.191,-0.152
MLLLTRSPTAWHRLSQLKPRVLPGTLGGQALHLRSWLLSRQGPAETGGQGQPQGPGLRTRLLITGLFGAGLGGAWLALRAEKERLQQQKRTEALRQAAVGQGDFHLLDHRGRARCKADFRGQWVLMYFGFTHCPDICPDELEKLVQVVRQLEAEPGLPPVQPVFITVDPERDDVEAMARYVQDFHPRLLGLTGSTKQVAQASHSYRVYYNAGPKDEDQDYIVDHSIAIYLLNPDGLFTDYYGRSRSAEQISDSVRRHMAAFRSVLS [SCO2],0.334,50.5 °C,51.5 °C,-0.127,1.37,1.52
MLLSVPLLLGLLGLAVAEPAVYFKEQFLDGDGWTSRWIESKHKSDFGKFVLSSGKFYGDEEKDKGLQTSQDARFYALSASFEPFSNKGQTLVVQFTVKHEQNIDCGGGYVKLFPNSLDQTDMHGDSEYNIMFGPDICGPGTKKVHVIFNYKGKNVLINKDIRCKDDEFTHLYTLIVRPDNTYEVKIDNSQVESGSLEDDWDFLPPKKIKDPDASKPEDWDERAKIDDPTDSKPEDWDKPEHIPDPDAKKPEDWDEEMDGEWEPPVIQNPEYKGEWKPRQIDNPDYKGTWIHPEIDNPEYSPDPSIYAYDNFGVLGLDLWQVKSGTIFDNFLITNDEAYAEEFGNETWGVTKAAEKQMKDKQDEEQRLKEEEEDKKRKEEEEAEDKEDDEDKDEDEEDEEDKEEDEEEDVPGQAKDEL [CALR],0.0117,54.6 °C,54.9 °C,0.0133,3.64,3.96
MLLWPLLLLLLLLPTLALLRQQRSQDARLSWLAGLQHRVAWGALVWAATWQRRRLEQSTLHVHQSQQQALRWCLQGAQRPHCSLRRSTDISTFRNHLPLTKASQTQQEDSGEQPLPPTSNQDLGEASLQATLLGLAALNKAYPEVLAQGRTARVTLTSPWPRPLPWPGNTLGQVGTPGTKDPRALLLDALRSPGLRALEAGTAVELLDVFLGLETDGEELAGAIAAGNPGAPLRERAAELREALEQGPRGLALRLWPKLQVVVTLDAGGQAEAVAALGALWCQGLAFFSPAYAASGGVLGLNLQPEQPHGLYLLPPGAPFIELLPVKEGTQEEAASTLLLAEAQQGKEYELVLTDRASLTRCRLGDVVRVVGAYNQCPVVRFICRLDQTLSVRGEDIGEDLFSEALGRAVGQWAGAKLLDHGCVESSILDSSAGSAPHYEVFVALRGLRNLSEENRDKLDHCLQEASPRYKSLRFWGSVGPARVHLVGQGAFRALRAALAACPSSPFPPAMPRVLRHRHLAQCLQERVVS [GHDC],-0.104,53.7 °C,55.1 °C,-0.154,0.585,1.25
MLMLFVFGVLLHEVSLSGQNEAPPNTHSIPGEPLYNYASIRLPEEHIPFFLHNNRHIATVCRKDSLCPYKKHLEKLKYCWGYEKSCKPEFRFGYPVCSYVDMGWTDTLESAEDIFWKQADFGYARERLEEMHVLCQPKETSDSSLVCSRYLQYCRATNLYLDLRNIKRNHDRFKEDFFQSGEIGGHCKLDIRTLTSEGQRKSPLQSWFAELQSYTQLNFRPIEDAKCDIVIEKPTYFMKLDAGVNMYHHFCDFINLYITQHVNNSFSTDVYIVMWDTSSYGYGDLFSDTWNAFTDYDVIHLKTYDSKRVCFKEAVFSLLPRMRYGLFYNTPLISGCQNTGLFRAFAQHVLHRLNITQEGPKDGKIRVTILARSTEYRKILNQNELVNALKTVSTFEVQIVDYKYRELGFLDQLRITHNTDIFIGMHGAGLTHLLFLPDWAAVFELYNCEDERCYLDLARLRGVHYITWRRQNKVFPQDKGHHPTLGEHPKFTNYSFDVEEFMYLVLQAADHVLQHPKWPFKKKHDEL [EOGT],-0.298,53.3 °C,54.9 °C,-0.00851,2.26,3.42
MLPARCARLLTPHLLLVLVQLSPARGHRTTGPRFLISDRDPQCNLHCSRTQPKPICASDGRSYESMCEYQRAKCRDPTLGVVHRGRCKDAGQSKCRLERAQALEQAKKPQEAVFVPECGEDGSFTQVQCHTYTGYCWCVTPDGKPISGSSVQNKTPVCSGSVTDKPLSQGNSGRKDDGSKPTPTMETQPVFDGDEITAPTLWIKHLVIKDSKLNNTNIRNSEKVYSCDQERQSALEEAQQNPREGIVIPECAPGGLYKPVQCHQSTGYCWCVLVDTGRPLPGTSTRYVMPSCESDARAKTTEADDPFKDRELPGCPEGKKMEFITSLLDALTTDMVQAINSAAPTGGGRFSEPDPSHTLEERVVHWYFSQLDSNSSNDINKREMKPFKRYVKKKAKPKKCARRFTDYCDLNKDKVISLPELKGCLGVSKEGRLV [SMOC1],0.221,–,54.9 °C,-0.0568,-1.94,-1.17
MLPLSIKDDEYKPPKFNLFGKISGWFRSILSDKTSRNLFFFLCLNLSFAFVELLYGIWSNCLGLISDSFHMFFDSTAILAGLAASVISKWRDNDAFSYGYVRAEVLAGFVNGLFLIFTAFFIFSEGVERALAPPDVHHERLLLVSILGFVVNLIGIFVFKHGGHGHSHGSGHGHSHSLFNGALDQAHGHVDHCHSHEVKHGAAHSHDHAHGHGHFHSHDGPSLKETTGPSRQILQGVFLHILADTLGSIGVIASAIMMQNFGLMIADPICSILIAILIVVSVIPLLRESVGILMQRTPPLLENSLPQCYQRVQQLQGVYSLQEQHFWTLCSDVYVGTLKLIVAPDADARWILSQTHNIFTQAGVRQLYVQIDFAAM [SLC30A7],0.101,57.8 °C,55.4 °C,-0.278,0.255,-1.45

# Reference: the supplement of paper PMC5998384
